Residue numbers refer to the chain shown, from its start. Where “and” joins values, the source holds several entries; their conditions need not be identical. Identical values can stand only once. Like-named read-outs stand apart in the source and are kept apart here.
Key:
PDGF-BB = target: T1, PDGF-BB (human, UniProt P01127); test: SPR, 25C
T1 chain: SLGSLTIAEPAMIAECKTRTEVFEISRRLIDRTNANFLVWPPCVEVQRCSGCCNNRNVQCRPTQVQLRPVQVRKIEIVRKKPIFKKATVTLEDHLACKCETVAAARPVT

VEGF121 [1] = target: T2, VEGF121 (human, UniProt P15692); test: SPR
T2 chain: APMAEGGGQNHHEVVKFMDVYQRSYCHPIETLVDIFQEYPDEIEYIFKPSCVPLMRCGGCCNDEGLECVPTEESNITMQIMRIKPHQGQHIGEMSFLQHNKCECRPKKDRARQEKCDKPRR

VEGF121 [2] = target: T2, VEGF121; test: SPR
VEGFA-165 [3] = target: T3, VEGFA-165 (human, UniProt P15692); test: competition
T3 chain: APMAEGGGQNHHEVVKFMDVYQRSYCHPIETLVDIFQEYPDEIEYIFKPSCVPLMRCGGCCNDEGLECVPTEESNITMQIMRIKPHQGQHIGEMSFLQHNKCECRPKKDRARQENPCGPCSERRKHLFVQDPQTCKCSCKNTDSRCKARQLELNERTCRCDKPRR

VEGFA-165 [4] = target: T3, VEGFA-165; test: SPR
VEGFA-165 [5] = target: T3, VEGFA-165; test: competition

B1: OG1321 (antibody)
chain 1: LVVTPPGPELVLNVSSTFVLTCSGSAPVVWERMSQEPPQEMAKAQDGTFSSVLTLTNLTGLDTGEYFCTHNDSRGLETDERKRLYIFVPDPTVGFLPNDAEELFIFLTEITEITIPCRVTDPQLVVTLHEKKGDVALPVPYDHQRGFSGIFEDRSYICKTTIGDREVDSDAYYVYRLQVSSINVSVNAVQTVVRQGENITLMCIVIGNEVVNFEWTYPRKESGRLVEPVTDFLLDMPYHIRSILHIPSAELEDSGTYTCNVTESVNDHQDEKAINITVVESGGGGGSGGGGSEVQLVESGGGLVQPGGSLRLSCAASGYDFTHYGMNWVRQAPGKGLEWVGWINTYTGEPTYAADFKRRFTFSLDTSKSTAYLQMNSLRAEDTAVYYCAKYPYYYGTSHWYFDVWGQGTLVTVSSASTKGPSVFPLAPSSKSTSGGTAALGCLVKDYFPEPVTVSWNSGALTSGVHTFPAVLQSSGLYSLSSVVTVPSSSLGTQTYICNVNHKPSNTKVDKKVEPKSCDKTHTCPPCPAPEAAGAPSVFLFPPKPKDTLMISRTPEVTCVVVDVSHEDPEVKFNWYVDGVEVHNAKTKPREEQYNSTYRVVSVLTVLHQDWLNGKEYKCKVSNKALPAPIEKTISKAKGQPREPQVYTLPPSREEMTKNQVSLTCLVKGFYPSDIAVEWESNGQPENNYKTTPPVLDSDGSFFLYSKLTVDKSRWQQGNVFSCSVMHEALHNHYTQKSLSCSPGK
chain 2: not shown
modifications: TAF443 protein, unconjugated
Question: For B1, which Kd (PDGF-BB) is on record?
Answer: 0.014 nM

B2: TAF347 (antibody)
chain 1: B1 chain 1 with Q645C, C741L
chain 2: not shown
Question: B2 was tested. Which Kd (VEGF121 [1]) did it give?
Answer: 0.28 nM and 0.182 nM

Question: And the Kd (VEGF121 [2])?
Answer: 0.231 nM

B3: OG1321 (antibody)
chain 1: B1 chain 1
chain 2: not shown
Question: With B3 as the binder, how does the IC50 (VEGFA-165 [3]) read?
Answer: 12.5 nM

Question: And the Kd (VEGFA-165 [4])?
Answer: 9.8 pM

B4: TAF443 (antibody)
chain 1: B1 chain 1
chain 2: not shown
Question: With B4 as the binder, how does the Kd (VEGF121 [1]) read?
Answer: 0.23 nM and 0.219 nM

Question: What about the Kd (VEGF121 [2]) of the same binder?
Answer: 0.225 nM

B5: OG1448 (antibody)
chain 1: B1 chain 1
chain 2: not shown
Question: B5 was tested. Which IC50 (VEGFA-165 [3]) did it give?
Answer: 8.5 nM

Question: What about the Kd (VEGFA-165 [4]) of the same binder?
Answer: 5.1 pM

Question: What about the IC50 (VEGFA-165 [5]) of the same binder?
Answer: 10.1 nM
